Test results: patent publication US20130018176A1, “METHODS OF PRODUCING HYBRIDOMAS AND MONOCLONAL ANTIBODIES AND ANTIBODIES PRODUCED THEREBY” (AMGEN INC., priority 2007, published 2013)

Legend:
rcyno hepcidin = test: BIAcore solution equilibrium binding analysis on immobilized antibody; design: species or system cyno
Method: The following example describes KinExA and BIAcore binding analysis for various antibodies to recombinant cyno hepcidin (rcyno).
B) BIAcore Solution Equilibrium Binding Analysis for mAb R9 and Ab43 Binding to rcynoHepc.
Antibody surface immobilization: antibodies R9 and Ab43 were immobilized on a CM5 chip. The immobilization was performed at a flow rate 10 uL/min of running buffer (DPBS: Dulbecco's Phosphate Buffer Saline1X, GIBCO 14190, with 0.005% BIAcore surfactant P-20) according to manufacturer's instructions. The carboxylated matrix of the sensor chip was first activated with a 100 ul injection of 1:1 mixture of EDC (75 mg/mL N-ethyl-N-(dimethylamine-propyl)carbodiimide in water, from BIAcore) and NHS (11.5 mg/mL N-hydroxysuccinimide in water, from BIAcore). 180 ul of antibodies (−20 ug/ml in 10 mM Na-acetate pH4.0) was injected to immobilize onto the sensor chip at 30 uL/min. […]
BIAcore analysis: Fixed concentrations of rcynoHepc were incubated with various concentrations of mAb R9 and Ab43 at room temperature for several hours before run through the immobilized antibody surfaces. […] The equilibrium dissociation constant (KD) was calculated from nonlinear regression analysis of the competition curves using a one-curve one-site homogeneous binding model (KinEx™ software, Sapidyne Instruments Inc., Boise Id.).

[1] = biological target: T1, mature human hepcidin (SEQ ID NO: 9) (Homo sapiens, UniProt P81172); test: Epitope specificity: antibody binding to immobilized hepcidin surface after pre-complex with hepcidin variants (BIAcore); settings: interpretation of Table 6
T1 construct: made in house; host or cells: recombinant
T1 sequence (P81172 60-84): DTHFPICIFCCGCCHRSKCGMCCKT
Method: (§1) The epitope specificity of anti-human hepcidin antibodies was evaluated by assessing ability of the antibodies to bind to mature human hepcidin (SEQ ID NO: 9) after pre-complex formation with different hepcidin variants.
(§2) Recombinant hepcidin was immobilized on a CM5 chip according to manufacturer's instructions at a flow rate 10 μL/min of running buffer (DPBS: Dulbecco's Phosphate Buffer Saline1X, GIBCO 14190, with 0.005% BIAcore surfactant P-20). The carboxylated matrix of the sensor chip was first activated with a 100 μL injection of 1:1 mixture of EDC (75 mg/mL N-ethyl-N-(dimethylamine-propyl)carbodiimide in water, from Biacore) and NHS (11.5 mg/mL N-hydroxysuccinimide in water, from Biacore). 180 μL of rhHepc (˜20 μg/ml in 10 mM Na-acetate pH4.0) was injected to immobilize onto the sensor chip at 30 μL/min. The excess reactive groups of the sensor chip were deactivated with an injection of 100 μL of ethanolamine (1.0M, from Biacore).
(§3) Forms of hepcidin used for the pre-complex were: correctly folded hepcidin as a positive control, the C1-C8, C3-C6 hepcidin variant (see Example 9), hepcidin 20 (N-terminally truncated, see Example 9) and linear hepcidin (Example 9). 1 nM solutions of antibody (2.41, 2.7, 43, and R9) were preincubated with 10 nM of each antigen at room temperature for several hours before run through the immobilized hepcidin surface. The binding signal obtained was proportional to the concentration of free antibody in solution at equilibrium.
(§4) Some antibodies require the five amino acids at the N-terminus of the molecule (e.g. Ab43 and to a lesser extent, R9).

[2] = system: mature human hepcidin (SEQ ID NO: 9); test: as above
Method: as §1, §2, §3, §4

[3] = biological target: T2, mature human hepcidin (SEQ ID NO: 9) (Homo sapiens, UniProt P81172); test: as above; settings: interpretation of Table 6; remark: listed apart in the source
T2 construct: made in house; host or cells: recombinant
Method: as §1, §2, §3, §4

synthetic human hepcidin = biological target: T3, synthetic human hepcidin (Homo sapiens, UniProt P81172); test: Iron-responsive beta-lactamase assay in 293/Fpn/BLA cells; format: cell-based; settings: 50 ng/mL synthetic human hepcidin, 2.5 ug/mL ferric citrate, read-out: EC50, decreased intracellular concentration of iron
T3 construct: made in house; host or cells: chemical synthesis (Fmoc solid phase), oxidatively folded
T3 sequence (P81172 60-84 limits assumed): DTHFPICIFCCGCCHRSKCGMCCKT
Method: The effect of anti-human hepcidin antibodies on this hepcidin-mediated iron sequestration was evaluated in vitro. […] These 293/Fpn/BLA cells, taken from a 70-80% confluent culture, were plated at 2.8×10^5 cells/mL in DMEM (Invitrogen Cat#11965) 5% FBS (Invitrogen Cat#10099-141) PSQ (Invitrogen Cat#10378-016), 90 uL/well (25,000 cells/well) in BioCoat Poly-D Lysine coated plates (Becton-Dickinson Cat#35-6640) and incubated at 37C with 5% CO2. At the end of the same day, a solution of assay medium (DMEM 5% FBS PSQ) with 100 ug/mL doxycycline was made, 10 uL/well of it added to the plate, and the plate incubated overnight or for at least 20 hours. […] Mixtures were added at 100 uL/well and incubated overnight at 37C, 5% CO2 in a cell culture incubator. Plates were then removed from the incubator and equilibrated to room temperature for 10 minutes before adding 20 uL/well of the prepared Invitrogen GeneBlazer CCF4 A/M development reagent (Invitrogen Kit# K1085) and incubating for 90 minutes in the dark. Development reagent was also added to 16 wells of a control assay plate without cells containing 100 uL assay medium (DMEM 5% FBS PSQ) and incubated for the same time. Blue & Green fluorescence signals were then read on an Envision Multilabel Reader (Perkin-Elmer Inc.) by exciting at 409 nm and reading emissions at 447 nm (blue) and 520 nm (green).

Chain of rcyno hepcidin (as listed by the source): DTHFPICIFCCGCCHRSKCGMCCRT

B1: Antibody Ab43: murine anti-human hepcidin monoclonal antibody generated by viral immunization; CDRs SEQ ID NOs: 16-21 (antibody, V domains shown)
VH: QIQLVQSGPELKKPGETVKISCKASGYTFTTYGMSWVKQAPGKGLKWMGWINTYSGVPTYADDFKGRFAFSLETSASTAYLQINNLKNEDTATYFCASLWYYGRAFDYWGQGTTLTVSS
VL: NIVLTQSPASLAVSLGQRATISCRASESVDSYGNSFMHWYQQKPGQPPKLLIYLASNLESGVPARFSGSGSRTDFTLTIDPVEADDAATYYCQQNNEDRTFGGGTKLEIK
binding affinity to rcyno hepcidin (rcyno hepcidin): significant binding affinity | Binding to Solution Epitopes, Folded Hepcidin [1]: ++++ (0% antibody binding to the hepcidin surface and therefore 100% inhibition by hepcidin in solution) | Binding to Hepcidin Surface, C1-C8 C3-C6 ([2]; 1 nM antibody preincubated with 10 nM C1-C8, C3-C6 hepcidin variant): 25% | Binding to Solution Epitopes, Linear Hepcidin ([2]; interpretation of Table 6): − (100% antibody binding to the hepcidin surface and therefore no inhibition by hepcidin in solution) | Binding to Solution Epitopes, Hepc20 [3]: − (100% antibody binding to the hepcidin surface and therefore no inhibition by hepcidin in solution) | EC50 (synthetic human hepcidin): 13.8 nM
